Reference: PMC11446282
Numbering of substitutions follows the chain as printed.

B1: RBM7 M147: RBM7, M147 to alanine (protein, UniProt Q9Y580 2-266, looked up, variant M147A)
RNA-binding protein 7: GAAAAEADRTLFVGNLETKVTEELLFELFHQAGPVIKVKIPKDKDGKPKQFAFVNFKHEVSVPYAMNLLNGIKLYGRPIKIQFRSGSSHAPQDVSLSYPQHHVGNSSPTSTSPSRYERTMDNMTSSAQIIQRSFSSPENFQRQAVANSALRQMSYGGKFGSSPLDQSGFSPSVQSHSHSFNQSSSSQWRQGTPSSQRKVRMNSYPYLADRHYSREQRYTDHGSDHHYRGKRDDFFYEDRNHDDWSHDYDNRRDSSRDGKWRSSRH
B2: RBM7 N148: RBM7, N148 to alanine (protein, UniProt Q9Y580 2-266, looked up, variant N148A)
RNA-binding protein 7: B1 RNA-binding protein 7 with A146M, N147A
B3: RBM7 R152: RBM7, R152 to alanine (protein, UniProt Q9Y580 2-266, looked up, variant R152A)
RNA-binding protein 7: B1 RNA-binding protein 7 with A146M, R151A
B4: RBM7 L151: RBM7, L151 to alanine (protein, UniProt Q9Y580 2-266, looked up, variant L151A)
RNA-binding protein 7: B1 RNA-binding protein 7 with A146M, L150A
B5: RBM7 S149: RBM7, S149 to alanine (protein, UniProt Q9Y580 2-266, looked up, variant S149A)
RNA-binding protein 7: B1 RNA-binding protein 7 with A146M, S148A
B6: PME1 M8: PME1, M8 to alanine (protein, UniProt Q9Y570 2-386, looked up, variant M8A)
Protein phosphatase …: SALEKSAHLGRLPSRPPLPGSGGSQSGAKMRMGPGRKRDFSPVPWSQYFESMEDVEVENETGKDTFRVYKSGSEGPVLLLLHGGGHSALSWAVFTAAIISRVQCRIVALDLRSHGETKVKNPEDLSAETMAKDVGNVVEAMYGDLPPPIMLIGHSMGGAIAVHTASSNLVPSLLGLCMIDVVEGTAMDALNSMQNFLRGRPKTFKSLENAIEWSVKSGQIRNLESARVSMVGQVKQCEGITSPEGSKSIVEGIIEEEEEDEEGSESISKRKKEDDMETKKDHPYTWRIELAKTEKYWDGWFRGLSNLFLSCPIPKLLLLAGVDRLDKDLTIGQMQGKFQMQVLPQCGHAVHEDAPDKVAEAVATFLIRHRFAEPIGGFQCVFPGC
B7: PME1 H9: PME1, H9 to alanine (protein, UniProt Q9Y570 2-386, looked up, variant H9A)
Protein phosphatase …: B6 Protein phosphatase … with A7M, H8A
B8: PME1 R12: PME1, R12 to alanine (protein, UniProt Q9Y570 2-386, looked up, variant R12A)
Protein phosphatase …: B6 Protein phosphatase … with A7M, R11A
B9: PME1 G11: PME1, G11 to alanine (protein, UniProt Q9Y570 2-386, looked up, variant G11A)
Protein phosphatase …: B6 Protein phosphatase … with A7M, G10A
B10: PME1 L4: PME1, L4 to alanine (protein, UniProt Q9Y570 2-386, looked up, variant L4A)
Protein phosphatase …: B6 Protein phosphatase … with L3A, A7M
B11: PME1 S7: PME1, S7 to alanine (protein, UniProt Q9Y570 2-386, looked up, variant S7A)
Protein phosphatase …: B6 Protein phosphatase … with S6A, A7M
B12: PME1 E5: PME1, E5 to alanine (protein, UniProt Q9Y570 2-386, looked up, variant E5A)
Protein phosphatase …: B6 Protein phosphatase … with E4A, A7M
B13: PME1 L10: PME1, L10 to alanine (protein, UniProt Q9Y570 2-386, looked up, variant L10A)
Protein phosphatase …: B6 Protein phosphatase … with A7M, L9A
B14: PME1 K6: PME1, K6 to alanine (protein, UniProt Q9Y570 2-386, looked up, variant K6A)
Protein phosphatase …: B6 Protein phosphatase … with K5A, A7M
B15: IER2 S14: IER2, S14 to alanine (protein, UniProt Q9BTL4 1-223, looked up, variant S14A)
Immediate early response gene …: MEVQKEAQRIMTLAVWKMYHSRMQRGGLRLHRSLQLSLVMRSARELYLSAKVEALEPEVSLPAALPSDPRLHPPREAESTAETATPDGEHPFPEPMDTQEAPTAEETSACCAPRPAKVSRKRRSSSLSDGGDAGLVPSKKARLEEKEEEEGASSEVADRLQPPPAQAEGAFPNLARVLQRRFSGLLNCSPAAPPTAPPACEAKPACRPADSMLNVLVRAVVAF
B16: IER2 M11: IER2, M11 to alanine (protein, UniProt Q9BTL4 1-223, looked up, variant M11A)
Immediate early response gene …: B15 Immediate early response gene … with M11A, A14S
B17: IER2 G27: IER2, G27 to alanine (protein, UniProt Q9BTL4 1-223, looked up, variant G27A)
Immediate early response gene …: B15 Immediate early response gene … with A14S, G27A
B18: IER2 G26: IER2, G26 to alanine (protein, UniProt Q9BTL4 1-223, looked up, variant G26A)
Immediate early response gene …: B15 Immediate early response gene … with A14S, G26A
B19: IER2 H31: IER2, H31 to alanine (protein, UniProt Q9BTL4 1-223, looked up, variant H31A)
Immediate early response gene …: B15 Immediate early response gene … with A14S, H31A
B20: IER2 T12: IER2, T12 to alanine (protein, UniProt Q9BTL4 1-223, looked up, variant T12A)
Immediate early response gene …: B15 Immediate early response gene … with T12A, A14S
B21: IER2 W16: IER2, W16 to alanine (protein, UniProt Q9BTL4 1-223, looked up, variant W16A)
Immediate early response gene …: B15 Immediate early response gene … with A14S, W16A
B22: IER2 L28: IER2, L28 to alanine (protein, UniProt Q9BTL4 1-223, looked up, variant L28A)
Immediate early response gene …: B15 Immediate early response gene … with A14S, L28A
B23: IER2 L36: IER2, L36 to alanine (protein, UniProt Q9BTL4 1-223, looked up, variant L36A)
Immediate early response gene …: B15 Immediate early response gene … with A14S, L36A
B24: IER2 V15: IER2, V15 to alanine (protein, UniProt Q9BTL4 1-223, looked up, variant V15A)
Immediate early response gene …: B15 Immediate early response gene … with A14S, V15A
B25: IER2 S37: IER2, S37 to alanine (protein, UniProt Q9BTL4 1-223, looked up, variant S37A)
Immediate early response gene …: B15 Immediate early response gene … with A14S, S37A
B26: IER2 S33: IER2, S33 to alanine (protein, UniProt Q9BTL4 1-223, looked up, variant S33A)
Immediate early response gene …: B15 Immediate early response gene … with A14S, S33A
B27: IER2 R9: IER2, R9 to alanine (protein, UniProt Q9BTL4 1-223, looked up, variant R9A)
Immediate early response gene …: B15 Immediate early response gene … with R9A, A14S
B28: IER2 Q24: IER2, Q24 to alanine (protein, UniProt Q9BTL4 1-223, looked up, variant Q24A)
Immediate early response gene …: B15 Immediate early response gene … with A14S, Q24A
B29: IER2 L13: IER2, L13 to alanine (protein, UniProt Q9BTL4 1-223, looked up, variant L13A)
Immediate early response gene …: B15 Immediate early response gene … with L13A, A14S
B30: IER2 R29: IER2, R29 to alanine (protein, UniProt Q9BTL4 1-223, looked up, variant R29A)
Immediate early response gene …: B15 Immediate early response gene … with A14S, R29A
B31: IER2 Q8: IER2, Q8 to alanine (protein, UniProt Q9BTL4 1-223, looked up, variant Q8A)
Immediate early response gene …: B15 Immediate early response gene … with Q8A, A14S
B32: IER2 Q35: IER2, Q35 to alanine (protein, UniProt Q9BTL4 1-223, looked up, variant Q35A)
Immediate early response gene …: B15 Immediate early response gene … with A14S, Q35A
B33: IER2 L34: IER2, L34 to alanine (protein)
chain: B15 Immediate early response gene … with A14S, L34A
B34: IER2 K17: IER2, K17 to alanine (protein)
chain: B15 Immediate early response gene … with A14S, K17A
B35: IER2 L30: IER2, L30 to alanine (protein)
chain: B15 Immediate early response gene … with A14S, L30A
B36: IER2 R25: IER2, R25 to alanine (protein, UniProt Q9BTL4 1-223, looked up, variant R25A)
Immediate early response gene …: B15 Immediate early response gene … with A14S, R25A
B37: IER2 I10: IER2, I10 to alanine (protein, UniProt Q9BTL4 1-223, looked up, variant I10A)
Immediate early response gene …: B15 Immediate early response gene … with I10A, A14S
B38: IER2 R32: IER2, R32 to alanine (protein, UniProt Q9BTL4 1-223, looked up, variant R32A)
Immediate early response gene …: B15 Immediate early response gene … with A14S, R32A
B39: IER2 M23: IER2, M23 to alanine (protein, UniProt Q9BTL4 1-223, looked up, variant M23A)
Immediate early response gene …: B15 Immediate early response gene … with A14S, M23A

System: PP2A-B55α
Test: Single alanine mutational scan, YFP-tagged interactors immunoprecipitated from HeLa cells, Western blot
Type: binding, human
Protocol: Standard cloning techniques were used throughout. Point mutations were introduced by whole plasmid polymerase chain reaction (PCR). All constructs were fully sequenced. Synthetic DNA was purchased from GeneArt, Life Technologies and cloned into pcDNA5/FRT/TO (Invitrogen) expression vector containing YFP, resulting in the indicated YFP fusion proteins. These constructs were transiently transfected into HeLa cells 24 hours before harvesting cells. Cells were lysed in lysis buffer [50 mM tris-HCl (pH 7.5), 50 mM NaCl, 1 mM EDTA, 1 mM […], and 0.1% NP-40]. Complexes were immunoprecipitated at 4°C in lysis buffer with green fluorescent protein (GFP)–Trap (ChromoTek) and washed in lysis buffer. Precipitated protein complexes were washed three times in lysis buffer, eluted in 2× SDS sample buffer, and subjected to Western blotting or MS as indicated.

[1] = single alanine mutant of YFP-tagged RBM7
[2] = single alanine mutant of YFP-tagged PME1
[3] = single alanine mutant of YFP-tagged IER2

Row | Molecule | Experimental % binding [3] | other results
1 | B1 |  | Experimental % binding [1]: 9%
2 | B2 |  | Experimental % binding [1]: 29%
3 | B3 |  | Experimental % binding [1]: 62%
4 | B4 |  | Experimental % binding [1]: 47%
5 | B5 |  | Experimental % binding [1]: 109%
6 | B6 |  | Experimental % binding [2]: 2%
7 | B7 |  | Experimental % binding [2]: 88%
8 | B8 |  | Experimental % binding [2]: 10%
9 | B9 |  | Experimental % binding [2]: 108%
10 | B10 |  | Experimental % binding [2]: 1%
11 | B11 |  | Experimental % binding [2]: 220%
12 | B12 |  | Experimental % binding [2]: 108%
13 | B13 |  | Experimental % binding [2]: 52%
14 | B14 |  | Experimental % binding [2]: 2%
15 | B15 | 83% | 
16 | B16 | 81% | 
17 | B17 | 77% | 
18 | B18 | 87% | 
19 | B19 | 61% | 
20 | B20 | 94% | 

Row | Molecule | Experimental % binding [3] | other results
21 | B21 | 100% | 
22 | B22 | 102% | 
23 | B23 | 66% | 
24 | B24 | 91% | 
25 | B25 | 62% | 
26 | B26 | 58% | 
27 | B27 | 78% | 
28 | B28 | 118% | 
29 | B29 | 80% | 
30 | B30 | 90% | 
31 | B31 | 90% | 
32 | B32 | 67% | 
33 | B33 | 74% | 
34 | B34 | 10% | 
35 | B35 | 81% | 
36 | B36 | 76% | 
37 | B37 | 81% | 
38 | B38 | 70% | 
39 | B39 | 94% | 
